This passage reports percent dimer, percent monomer and stoichiometry N results from publication PMC10847778.

The target of test [1] is OhyA lacking helices α19 and α20 (OhyA(ΔHTH)), His-tagged (Staphylococcus aureus). The experiment in a line: mass photometry; OneMP mass photometer; final concentration 100 nM protein; dilute, equilibrium conditions.
For test [2] the target is unchanged. The experiment in a line: SEC-MALS; Superose 6 Increase 10/300 GL; 20 mM Tris, 200 mM NaCl, pH 7.6; 25 °C; protein at 2 mg/ml, 100 μl injected. In general terms: In gel filtration, larger molecules generally elute earlier.
The target of test [3] is oleate hydratase (OhyA), recombinant full-length, His-tagged (Staphylococcus aureus). The experiment in a line: cryo-EM single-particle images (no structure solved); grids of OhyA prepared in the absence of detergent.
Test [4] shares this target. The experiment in a line: mass photometry; OneMP mass photometer; final concentration 100 nM protein; dilute, equilibrium conditions.
For test [5] the target is unchanged. Put plainly: SEC-MALS; Superose 6 Increase 10/300 GL; 20 mM Tris, 200 mM NaCl, pH 7.6; 25 °C; protein at 2 mg/ml, 100 μl injected.

Broadly, the stoichiometry N is a count of units in the complex or per binding partner. Consider “OhyA lacking helices α19 and α20 (OhyA(ΔHTH)), His-tagged (domain or fragment)”, for which, in test [1], the percent dimer is 20% and the percent monomer amounted to 75%. Further, in test [2], the percent dimer is 89.8% and the stoichiometry N stood at 2.

Turning to “oleate hydratase (OhyA), recombinant full-length, His-tagged (enzyme)”, the stoichiometry N amounted to 4 in test [3], 2 in test [4] and 2 in test [5]. The percent dimer in test [4] came to 86%; in test [5], 84.6%.
